Results taken from publication PMC5876331, “RING tetramerization is required for nuclear body biogenesis and PML sumoylation” (Nature Communications, 2018).
“And” between values parts separate entries of the source, which are not always exact repeats. Identical values can stand only once.

Assays:
[1] = target: the molecule itself; assay: crystal structure; PML RING49-104 crystallised at 26 mg ml^-1, 500 mM ammonium sulfate, 1 M lithium sulfate, 100 mM sodium citrate, 4 °C; 1.6 Å, Zn SAD; 4 molecules per ASU
[2] = target: the molecule itself; assay: AUC; sedimentation velocity, 200,000g, 25 °C, 20 mM Tris, 100 mM NaCl, pH 8.0, with/without 1 mM DTT; 1 mg ml^-1 (wild type also 5 mg ml^-1); SEDFIT c(s)
[3] = target: the molecule itself; assay: SEC-MALS; pooled gel filtration peaks of PML RING1-119 re-analysed on WTC-015S5 column, 40 μl injection, 0.5 ml min^-1, DAWN HELEOS-II MALS

B1: PML RING49-104 domain (amino acids 49-104), wild type (domain or fragment, UniProt P29590 49-104, looked up)
chain: EEEFQFLRCQQCQAEAKCPKLLPCLHTLCSGCLEASGMQCPICQAPWPLGADTPAL
notes: PML (promyelocytic leukemia protein), RING domain, amino acids 49-104; residues 51-97 visible in the electron density map; Two Zn ions per subunit; not shown: His6, N-terminal, cleaved
[1]
  stoichiometry N: 4
[2]
  stoichiometry N: 2

B2: PML RING1-119 (amino acids 1-119), wild type (domain or fragment, UniProt P29590 1-119, looked up)
chain: MEPAPARSPRPQQDPARPQEPTMPPPETPSEGRQPSPSPSPTERAPASEEEFQFLRCQQCQAEAKCPKLLPCLHTLCSGCLEASGMQCPICQAPWPLGADTPALDNVFFESLQRRLSVY
notes: PML, amino acids 1-119 (extended RING); theoretical molecular weight 13.1 kDa; also called extended RING; long version of PML RING; not shown: His6, N-terminal, cleaved
[3]
  stoichiometry N: 4 and 2
